Substitutions are numbered along the chain they refer to. Like-named read-outs stand apart in the source and are kept apart here.
Legend:
[1] = molecular target: T1, human TGFβ2, mature receptor-binding domain (human, UniProt P09858 303-414 (pig entry), The mature TGFβ2 is a disulfide-linked homodimer of this 112-residue chain. The 4A11 epitope spans both monomers (p-1207).); assay: SPR
T1 construct: Peprotech; also called TGFb2
T1 sequence: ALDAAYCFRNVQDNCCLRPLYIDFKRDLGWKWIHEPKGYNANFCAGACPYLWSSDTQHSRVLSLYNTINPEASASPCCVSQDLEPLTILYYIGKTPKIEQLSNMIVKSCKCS

[2] = molecular target: T2, human TGFβ3, mature dimeric form (human, UniProt P10600 301-412); assay: SPR
T2 construct: Peprotech, expressed in E. coli; also called TGFb3
T2 sequence: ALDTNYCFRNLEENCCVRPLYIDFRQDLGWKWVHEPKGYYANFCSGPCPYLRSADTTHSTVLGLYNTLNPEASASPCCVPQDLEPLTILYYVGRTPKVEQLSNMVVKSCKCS

[3] = molecular target: T3, human TGFβ1, mature receptor-binding domain (human, UniProt P01137 279-390); assay: BIAcore T200
T3 construct: Peprotech; also called TGFb1
Summary of the method: (§1)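 Humanized antibodies captured on protein A CM5 chip (~100 RU), then 3-fold serial dilutions of TGFβ (0.02–5 nM) injected in HBS-EP pH 7.4 at 25° C., 50 μl/min. kon and koff from 1:1 Langmuir fit; KD = koff/kon.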

[4] = molecular target: T1, human TGFβ2, mature receptor-binding …; assay: BIAcore T200
Summary of the method: as §1

[5] = molecular target: T2, human TGFβ3, mature dimeric form; assay: BIAcore T200
Summary of the method: as §1

[6] = molecular target: T3, human TGFβ1, mature receptor-binding …; assay: BIAcore T200; remark: listed apart in the source
Method: (§2) For binding affinity determinations of all humanized 2A10 antibodies, Surface Plasmon Resonance (SPR) measurement with a BIAcore™-T200 instrument was used. Briefly, series S CM5 biosensor chip with protein A was first applied to capture each humanized 2A10 variant to achieve approximately 100 response units (RU) on each flow cell, following by injection of 3-fold serial dilutions of human TGFβ1, TGFβ2 or TGFβ3 (0.02 nM to 5 nM) in HBS-EP buffer (0.01M HEPES pH 7.4, 0.15M NaCl, 3 mM EDTA and 0.05% v/v surfactant P20) at 25° C. with a flow rate of 50 μl/min for kinetics measurement. Association rates (ko.) and dissociation rates (koff) were calculated using a simple one-to-one Langmuir binding model (BIAcore T200 evaluation software version 2.0) to determine the equilibrium dissociation constant (KD), which was calculated as the ratio koff/kₒₙ.
(§3) Binding affinity determinations of all humanized 4A11 antibodies were performed using SPR measurement with a BIAcore™-T200 instrument, as described above in Example 6 ([…]).

[7] = molecular target: T1, human TGFβ2, mature receptor-binding …; assay: BIAcore T200; remark: listed apart in the source
Method: as §2, §3

[8] = molecular target: T2, human TGFβ3, mature dimeric form; assay: BIAcore T200; remark: listed apart in the source
Method: as §2, §3

[9] = molecular target: T1, human TGFβ2, mature receptor-binding …; assay: Biacore SPR
[10] = molecular target: T4, mouse TGFβ2, mature peptide (mouse, UniProt P27090 303-414); assay: Biacore SPR
T4 construct: mature
T4 sequence (looked up): T1 sequence with S59T, R60K, K94N

[11] = molecular target: T3, human TGFβ1, mature receptor-binding …; assay: cell-based or functional assay
[12] = molecular target: T1, human TGFβ2, mature receptor-binding …; assay: cell-based or functional assay
[13] = molecular target: T2, human TGFβ3, mature dimeric form; assay: cell-based or functional assay
[14] = molecular target: T3, human TGFβ1, mature receptor-binding …; assay: cell-based or functional assay; remark: listed apart in the source
[15] = molecular target: T3, human TGFβ1, mature receptor-binding …; assay: cell-based or functional assay; remark: listed apart in the source
[16] = molecular target: T1, human TGFβ2, mature receptor-binding …; assay: cell-based or functional assay; remark: listed apart in the source
[17] = molecular target: T2, human TGFβ3, mature dimeric form; assay: cell-based or functional assay; remark: listed apart in the source
[18] = molecular target: T3, human TGFβ1, mature receptor-binding …; assay: cell-based or functional assay; remark: listed apart in the source
[19] = molecular target: T1, human TGFβ2, mature receptor-binding …; assay: cell-based or functional assay; remark: listed apart in the source
[20] = molecular target: T2, human TGFβ3, mature dimeric form; assay: cell-based or functional assay; remark: listed apart in the source
[21] = molecular target: T1, human TGFβ2, mature receptor-binding …; assay: cell-based or functional assay; remark: listed apart in the source
[22] = molecular target: T4, mouse TGFβ2, mature peptide; assay: cell-based or functional assay

T3 sequence (P01137 279-390 limits assumed): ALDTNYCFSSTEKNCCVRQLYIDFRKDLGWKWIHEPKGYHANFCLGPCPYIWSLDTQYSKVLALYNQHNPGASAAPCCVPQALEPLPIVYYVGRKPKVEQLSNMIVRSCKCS

B1: 4A11 (antibody, V domains shown)
VH: QSLEESGGRLVTPGTPLTLTCTVSGFSLSSYTVNWVRQAPGKGLEWIGYISYGGSAYYASWANGRFTISKTSATVDLKITSPTTEDTATYFCARHMQVGGAPTGSMAAFDPWGPGTLVTVSS
VL: AAVLTQTPSPVSAAVGGTVSISCQSSQSVYNNNYLSWFQQKPGQPPKLLIYGASTLTSGVPSRFKGSGSGTQFTLTISDVQCDDAATYYCAGGYSGSSDKYAFGGGTEVVVKG
notes: anti-TGFβ2/3, recombinant rabbit monoclonal; some paragraphs print the H/L pair as 32/33; also called Rb1.4A11; Rbt 4A11
[1]
  Kd: < 10 pM
[2]
  Kd: < 10 pM
[3]
  Kd: > 5000 pM
[4]
  Kd: 1.6 pM
[5]
  Kd: 1.2 pM
[6]
  Kd: > 5000 pM
[7]
  Kd: 1.6 pM
[8]
  Kd: ≤ 1.2 pM
[9]
  Kd: 8 pM
[10]
  Kd: < 2 pM
[11]
  Blocking IC50: > 500000 pM
[12]
  Blocking IC50: 250 pM
[13]
  Blocking IC50: 30 pM
[14]
  HEKBlue TGFβ blocking IC50: > 200000 pM
[15]
  HEKBlue TGFβ blocking IC50: > 200000 pM
[16]
  HEKBlue TGFβ blocking IC50: 90 pM
[17]
  HEKBlue TGFβ blocking IC50: 60 pM
[18]
  HEKBlue TGFβ blocking IC50: > 200000 pM
[19]
  HEKBlue TGFβ blocking IC50: 90 pM
[20]
  HEKBlue TGFβ blocking IC50: 60 pM
[21]
  IC50 (read off the curve): ~60 pM
[22]
  IC50 (read off the curve): ~70 pM

Source: patent US20210301005A1 (Genentech, published 2021)
